“And” between values parts separate entries of the source, which are not always exact repeats. Identical values can stand only once.

For experiment [1], the target named is T1, Nrp1 cytoplasmic domain (UniProt P97333 880-923). The experiment can be described thus: ITC. (ITC needs no label: the signal is the heat of the interaction.)
Experiment [2] deals with T1, Nrp1 cytoplasmic domain. The experiment in a line: SPR. In general terms: SPR reads the build-up and loss of mass on a sensor chip optically.

T1 sequence (P97333 880-923): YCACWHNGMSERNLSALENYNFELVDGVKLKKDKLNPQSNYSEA

B1: FlnA repeats 23-24 (domain or fragment)
chain: GHGGDPGLVSAYGAGLEGGVTGNPAEFVVNTSNAGAGALSVTIDGPSKVKMDCQECPEGYRVTYTPMAPGSYLISIKYGGPYHIGGSPFKAKVTGPRLVSNHSLHETSSVFVDSLTKATCAPQHGAPGPGPADASKVVAKGLGLSKAYVGQKSSFTVDCSKAGNNMLLVGVHGPRTPCEEILVKHVGSRLYSVSYLLKDKGEYTLVVKWGDEHIPGSPYRVVVP
B1: the Kd (as a rule, the concentration at which binding is half-saturated) in experiment [1] was 12.1 µM and 12.9 µM; in experiment [2], 9.6 ± 1.2 µM.

(Values after publication PMC3856898 (FEBS letters, 2013).)
